Reference: patent US20170241986A1, “METHODS FOR IDENTIFYING COMPOUNDS THAT ALTER THE ACTIVITY OF IRHOM POLYPEPTIDES AND USE THEREOF” (The Jackson Laboratory, priority 2014, published 2017)

B1: HuWt: full-length wildtype human RHBDF2 cDNA (iRhom2) in a C-terminal Flag-tagged expression vector (protein)
chain: MASADKNGGSVSSVSSSRLQSRKPPNLSITIPPPEKETQAPGEQDSMLPEGFQNRRLKKSQPRTWAAHTTACPPSFLPKRKNPAYLKSVSLQEPRSRWQESSEKRPGFRRQASLSQSIRKGAAQWFGVSGDWEGQRQQWQRRSLHHCSMRYGRLKASCQRDLELPSQEAPSFQGTESPKPCKMPKIVDPLARGRAFRHPEEMDRPHAPHPPLTPGVLSLTSFTSVRSGYSHLPRRKRMSVAHMSLQAAAALLKGRSVLDATGQRCRVVKRSFAFPSFLEEDVVDGADTFDSSFFSKEEMSSMPDDVFESPPLSASYFRGIPHSASPVSPDGVQIPLKEYGRAPVPGPRRGKRIASKVKHFAFDRKKRHYGLGVVGNWLNRSYRRSISSTVQRQLESFDSHRPYFTYWLTFVHVIITLLVICTYGIAPVGFAQHVTTQLVLRNKGVYESVKYIQQENFWVGPSSIDLIHLGAKFSPCIRKDGQIEQLVLRERDLERDSGCCVQNDHSGCIQTQRKDCSETLATFVKWQDDTGPPMDKSDLGQKRTSGAVCHQDPRTCEEPASSGAHIWPDDITKWPICTEQARSNHTGFLHMDCEIKGRPCCIGTKGSCEITTREYCEFMHGYFHEEATLCSQVHCLDKVCGLLPFLNPEVPDQFYRLWLSLFLHAGVVHCLVSVVFQMTILRDLEKLAGWHRIAIIFILSGITGNLASAIFLPYRAEVGPAGSQFGLLACLFVELFQSWPLLERPWKAFLNLSAIVLFLFICGLLPWIDNIAHIFGFLSGLLLAFAFLPYITFGTSDKYRKRALILVSLLAFAGLFAALVLWLYIYPINWPWIEHLTCFPFTSRFCEKYELDQVLH
modifications: left off: small tags and cut ends
notes: full-length wildtype human RHBDF2 cDNA (iRhom2) in a C-terminal Flag-tagged expression vector
B2: p.I186T: HuWt clone containing the human tylosis missense mutation RHBDF2 p.I186T (protein)
chain: MASADKNGGSVSSVSSSRLQSRKPPNLSITIPPPEKETQAPGEQDSMLPEGFQNRRLKKSQPRTWAAHTTACPPSFLPKRKNPAYLKSVSLQEPRSRWQESSEKRPGFRRQASLSQSIRKGAAQWFGVSGDWEGQRQQWQRRSLHHCSMRYGRLKASCQRDLELPSQEAPSFQGTESPKPCKMPKTVDPLARGRAFRHPEEMDRPHAPHPPLTPGVLSLTSFTSVRSGYSHLPRRKRMSVAHMSLQAAAALLKGRSVLDATGQRCRVVKRSFAFPSFLEEDVVDGADTFDSSFFSKEEMSSMPDDVFESPPLSASYFRGIPHSASPVSPDGVQIPLKEYGRAPVPGPRRGKRIASKVKHFAFDRKKRHYGLGVVGNWLNRSYRRSISSTVQRQLESFDSHRPYFTYWLTFVHVIITLLVICTYGIAPVGFAQHVTTQLVLRNKGVYESVKYIQQENFWVGPSSIDLIHLGAKFSPCIRKDGQIEQLVLRERDLERDSGCCVQNDHSGCIQTQRKDCSETLATFVKWQDDTGPPMDKSDLGQKRTSGAVCHQDPRTCEEPASSGAHIWPDDITKWPICTEQARSNHTGFLHMDCEIKGRPCCIGTKGSCEITTREYCEFMHGYFHEEATLCSQVHCLDKVCGLLPFLNPEVPDQFYRLWLSLFLHAGVVHCLVSVVFQMTILRDLEKLAGWHRIAIIFILSGITGNLASAIFLPYRAEVGPAGSQFGLLACLFVELFQSWPLLERPWKAFLNLSAIVLFLFICGLLPWIDNIAHIFGFLSGLLLAFAFLPYITFGTSDKYRKRALILVSLLAFAGLFAALVLWLYIYPINWPWIEHLTCFPFTSRFCEKYELDQVLH
modifications: left off: small tags and cut ends
B3: HuCub: human RHBDF2 construct mimicking the mutant Rhbdf2cub transcript; N-terminal-truncated iRhom2 (protein)
chain: MSSMPDDVFESPPLSASYFRGIPHSASPVSPDGVQIPLKEYGRAPVPGPRRGKRIASKVKHFAFDRKKRHYGLGVVGNWLNRSYRRSISSTVQRQLESFDSHRPYFTYWLTFVHVIITLLVICTYGIAPVGFAQHVTTQLVLRNKGVYESVKYIQQENFWVGPSSIDLIHLGAKFSPCIRKDGQIEQLVLRERDLERDSGCCVQNDHSGCIQTQRKDCSETLATFVKWQDDTGPPMDKSDLGQKRTSGAVCHQDPRTCEEPASSGAHIWPDDITKWPICTEQARSNHTGFLHMDCEIKGRPCCIGTKGSCEITTREYCEFMHGYFHEEATLCSQVHCLDKVCGLLPFLNPEVPDQFYRLWLSLFLHAGVVHCLVSVVFQMTILRDLEKLAGWHRIAIIFILSGITGNLASAIFLPYRAEVGPAGSQFGLLACLFVELFQSWPLLERPWKAFLNLSAIVLFLFICGLLPWIDNIAHIFGFLSGLLLAFAFLPYITFGTSDKYRKRALILVSLLAFAGLFAALVLWLYIYPINWPWIEHLTCFPFTSRFCEKYELDQVLH
modifications: left off: small tags and cut ends
notes: human RHBDF2 construct mimicking the mutant Rhbdf2cub transcript; N-terminal-truncated iRhom2

Tests used:
AREG [1] = assay: Co-immunoprecipitation of iRhom2-AREG complex; type: binding, human; settings: COS7 cell lysates, anti-Flag immunoprecipitation
Procedure: Immunoprecipitation: 293T and COS7 cell transfections were carried according to the manufacturer's instructions (Life technologies). Cells plated in 6 well plates were treated with 400 μls of Cell Lysis Buffer (Cell Signaling, Danvers, Mass.) containing complete mini protease inhibitors (Roche Applied Science, Indianapolis, Ind.), incubated on ice for 10 min and centrifuged at 14,000 g for 10 min in a cold room. Cell supernatant was incubated overnight with 20 μls of magnetic beads conjugated with Anti-DDK antibody (Origene) in a cold room on a rocking platform. Following overnight incubation, beads/slurry was washed with three times with TBS-T, and protein was collected using 2×SDS-PAGE loading buffer.

iRhom2 [2] = assay: Cyclohexamide chase with flow cytometry of Flag-tagged iRhom2 protein in COS7 cells; type: cell-based; settings: 150 μg/ml cyclohexamide chase, within one hour
Procedure: (§1) Flow cytometry—293T and COS7 cells plated in 6 well plates were transiently transfected with 600 ng of HuWt or HuCub or HuWt p.I186T cDNAs using Lipofectamine™ LTX reagent. After 40 h, cells were incubated in 150 μg/ml of cyclohexamide for 0, 0.5, 1, 2 and 4 h. Following that, cells were fixed in 150 μls of freshly prepared cold 4% PFA at RT for 40 min. Cells were washed once with 2 ml PBST and resuspended in 150 μls of PBST for 15 min at RT in the dark. After another wash, cells were resuspended in 125 μls of PBST containing phycoerythrin-labeled anti-DDK primary antibody (1:50) on ice for 30 min. After a final wash, cells were resuspended in FACS buffer and subjected to flow cytometry analysis (BD FACSCalibur).
Statistical analysis—GraphPad Prism v4 (GraphPad Software, San Diego, Calif.) was used to generate Kaplan-Meier survival curves and calculate protein half-life (One phase exponential decay equation). One-way ANOVA and t-tests determined statistical differences. P value less than 0.05 was considered statistically significant.

AREG [3] = assay: ELISA of AREG in conditioned medium of transfected 293T cells (in vitro cleavage assay); type: cell-based, human
From the text: To test whether Rhbdf2^cub, with its short N-terminal domain, could induce secretion of AREG independently of metalloprotease activity, we performed in vitro cleavage assays in the presence or absence of marimastat (MM), a potent broad-spectrum metalloprotease inhibitor that can block both ADAM17- and ADAM10-dependent shedding of substrates. Because of the significant homology between the mouse and human RHBDF2 genes we transfected 293T cells with human AREG either alone or with the human wildtype (HuWt) or human Cub (HuCub) RHBDF2 genes (FIG. 5A), and measured AREG levels in conditioned medium. In the absence of MM, we observed no difference in AREG levels between AREG-expressing and AREG/HuCub co-expressing cells, whereas co-expression of HuWt and AREG reduced AREG levels by ˜60% (FIG. 5B).
(§2) Human AREG, HB-EGF and EGF ELISA: Transient transfections were performed in 293T cells seeded in 24-well plates. Using lipofectamine LTX with Plus reagent 16.5 fmol of HuWt or HuCub was co-transfected with 25 ng of AREG or 50 ng of HB-EGF or 200 ng of EGF. The total amount of transfected DNA was made up to equal amount per well with pCMV6-AC-HA vector. After 24 h, DMSO or 10 μM MM in 1 ml of fresh medium replaced the old medium. After 24 h, 100 μl of supernatant was either undiluted (HB-EGF and EGF) or diluted five-fold (AREG) and subjected to ELISA as per the manufacturer's instructions (DY262, DY259, and DY236).

iRhom2 [4] = assay: Flow cytometry of protein expression of Flag-tagged constructs in 293T and COS7 cells; type: cell-based, human; settings: 48 h post transfection
Procedure: as §1, with “After 40 h, cells were incubated in 150 μg/ml of cyclohexamide for 0, 0.5, 1, 2 and 4 h.” left out

AREG [5] = assay: Immunoblot of intracellular pro-AREG in co-transfected cells; type: cell-based, human; settings: co-expression with AREG, DMSO or 10 μM MM
Procedure: SDS-PAGE and Immunoblotting: Cells were washed once with ice cold PBS and incubated with RIPA buffer (Cell Signaling, Danvers, Mass.) containing complete mini protease inhibitors (Roche Applied Science, Indianapolis, Ind.) on ice for 10 min. Cell lysate was centrifuged at 14,000 g for 10 min at 4° C. Supernatant was collected and stored at −80° C. until further use. Total amount of protein was quantified using a Qubit Fluorometer (Life technologies), and 10 μg of protein was loaded onto 4-12% pre-cast gels (Lonza, Allendale, N.J.) and run at 140V until the low molecular weight Precision plus protein standard (Bio-Rad) reached the bottom of the gel. Resolved proteins were electrophoretically transferred onto PVDF membranes using an iBLOT (Life technologies) before blocking in 5% BSA (Cell Signaling Technology) in TBST (20 mM Tris, 137 mM sodium chloride, and 0.1% Tween-20) for 1 h at room temperature. Membranes were then incubated overnight at 4° C. in primary antibodies (1:1000) followed by three 15 min washes in TBST and incubation in secondary antibodies (1:2000) for 1 h at room temperature. After another wash in TBST for 90 min, membranes were exposed to SuperSignal West Femto Substrate (Fisher Scientific) for 5 min for detection of horseradish peroxidase generated signal. Membranes were re-probed with actin-specific antibody. […]

EGF = assay: ELISA of EGF in conditioned medium of transfected 293T cells; type: cell-based, human; settings: 10 μM marimastat
Procedure: as §2

HB-EGF = assay: ELISA of HB-EGF in conditioned medium of transfected 293T cells; type: cell-based, human; settings: 10 μM marimastat
Procedure: as §2

[6] = 293T cells, co-expression with AREG, absence of MM
[7] = co-expression with AREG, 10 μM marimastat

Molecule | physical complex with AREG (AREG [1]) | reduction in immunoreactivity compared with HuCub or p.I186T (iRhom2 [2]) | reduction of AREG levels in conditioned medium (AREG [3]; [6]) [%] | protein expression level compared to HuCub and p.I186T (iRhom2 [4]) | levels of AREG in conditioned medium compared with HuWt (AREG [3]; [7]) | intracellular levels of AREG compared with HuWt (AREG [5]) | secretion of EGF compared with empty vector transfected controls (EGF) | secretion of HB-EGF compared with empty vector transfected controls (HB-EGF) | secretion of AREG compared with empty vector transfected controls (AREG [3]; 293T cells, 10 μM marimastat) | AREG levels versus AREG-expressing cells (AREG [3]; [6])
B1 | forms physical complexes with AREG | approximately 50% | ~60 | significantly lower |  |  |  |  |  | 
B2 | forms physical complexes with AREG |  |  |  | greater levels of AREG in conditioned medium | lower intracellular levels |  |  |  | 
B3 | forms physical complexes with AREG |  |  |  | greater levels of AREG in conditioned medium | lower intracellular levels | not EGF | selectively increased secretion of AREG and HB-EGF | selectively increased secretion of AREG | no difference
